According to paper PMC2791442, “Three Dimensional Structure of the MqsR:MqsA Complex: A Novel TA Pair Comprised of a Toxin Homologous to RelE and an Antitoxin with Unique Properties” (PLoS Pathogens, 2009):

What was measured:
[1] = target: the molecule itself; assay: SEC + other: dynamic light scattering; co-expressed and co-purified complex on a size exclusion column (Superdex 75 26/60 for MqsR:MqsA-F); oligomeric state confirmed by dynamic light scattering
[2] = target: T1, MqsR (his-tagged), co-expressed with full-length MqsA (E. coli, UniProt Q46865 1-98); assay: as above; conditions: both partners purified
T1 construct: MqsR (YgiU, b3022) toxin of Escherichia coli, 98 residues; also called YgiU; B3022; not shown: His6, N-terminal, kept
T1 sequence (looked up): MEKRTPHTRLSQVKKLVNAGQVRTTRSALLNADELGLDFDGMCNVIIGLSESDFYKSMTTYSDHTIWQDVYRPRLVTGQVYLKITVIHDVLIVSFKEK

[3] = target: T2, MqsR, his6-tag cleaved, co-expressed with MqsA-N (E. coli, UniProt Q46865 1-98); assay: as above; conditions: both partners purified
T2 construct: MqsR (YgiU, b3022) toxin of Escherichia coli, 98 residues; 1-97 seen in the first complex of the crystal; also called YgiU; B3022; not shown: His6, N-terminal, cleaved
T2 sequence (looked up): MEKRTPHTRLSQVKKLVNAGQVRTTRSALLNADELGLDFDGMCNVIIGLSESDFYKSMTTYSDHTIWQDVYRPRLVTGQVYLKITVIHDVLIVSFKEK

[4] = target: the molecule itself; assay: crystal structure; MqsA-F, 2.15 Å, molecular replacement; sitting drop at 4°C, 75 mM Bis-Tris pH 5.5, 150 mM MgCl2, 19% PEG3350; two molecules in the asymmetric unit

B1: Full-length MqsA (MqsA-F), untagged, co-expressed with MqsR (natural protein, E. coli, UniProt Q46864 1-131, looked up)
chain: MKCPVCHQGEMVSGIKDIPYTFRGRKTVLKGIHGLYCVHCEESIMNKEESDAFMAQVKAFRASVNAETVAPEFIVKVRKKLSLTQKEASEIFGGGVNAFSRYEKGNAQPHPSTIKLLRVLDKHPELLNEIR
notes: MqsA (YgiT, b3021) antitoxin of Escherichia coli, residues 1-131; Two copies stand in the MqsR:MqsA2:MqsR complex; also called YgiT; B3021; source: co-expressed with his-tagged MqsR, co-purified, SEC
binding result [1]: binds
stoichiometry N [2]: 1 MqsA-F per MqsR (2:2 complex)

B2: MqsA N-terminal domain (MqsA-N), untagged, co-expressed with MqsR (domain or fragment, E. coli, UniProt Q46864 1-76, looked up)
chain: MKCPVCHQGEMVSGIKDIPYTFRGRKTVLKGIHGLYCVHCEESIMNKEESDAFMAQVKAFRASVNAETVAPEFIVK
notes: MqsA (YgiT, b3021) antitoxin of Escherichia coli, N-terminal domain, residues 1-76; Untagged pCA21a vector; source: E. coli BL21 (DE3), co-expressed with MqsR, purified (his6-tag of MqsR, thrombin cleavage, subtraction his6-tag, SEC)
stoichiometry N [3]: 1 MqsA-N per MqsR (1:1 heterodimer)

B3: Full-length MqsA (MqsA-F), his6-tag cleaved (natural protein, E. coli, UniProt Q46864 1-131, looked up)
chain: MKCPVCHQGEMVSGIKDIPYTFRGRKTVLKGIHGLYCVHCEESIMNKEESDAFMAQVKAFRASVNAETVAPEFIVKVRKKLSLTQKEASEIFGGGVNAFSRYEKGNAQPHPSTIKLLRVLDKHPELLNEIR
modifications: Gln108 methylated at N5
notes: MqsA (YgiT, b3021) antitoxin of Escherichia coli, residues 1-131; Modified pET28a with a TEV site; also called YgiT; B3021; source: E. coli One Shot BL21 (DE3), purified (his6-tag, TEV cleavage, subtraction his6-tag, SEC); not shown: His6, N-terminal, cleaved
binding result [4]: binds
